Data as given in patent publication US20230091315A1 (CISBIO BIOASSAYS, published 2023).

How the values were obtained:
[1] = biological target: T1, human recombinant G-protein alphai1 fused at the N-terminal with a Tag Twin-Strep-tag (TST-G protein alphai1) (human, UniProt B2RSH2 1-354 (mouse entry)); assay: HTRF (TR-FRET) titration of antibody-d2 on 2.5 nM Twin-Strep-tagged Gαi1 with anti-Twin-Strep-tag-Lumi4 Tb; condition: GDP 10 µM
T1 construct: Purified protein made in Sf9 insect cells; also called G-protein αi1; protein Gαi1
T1 sequence (B2RSH2 whole entry, the tested form may be a part): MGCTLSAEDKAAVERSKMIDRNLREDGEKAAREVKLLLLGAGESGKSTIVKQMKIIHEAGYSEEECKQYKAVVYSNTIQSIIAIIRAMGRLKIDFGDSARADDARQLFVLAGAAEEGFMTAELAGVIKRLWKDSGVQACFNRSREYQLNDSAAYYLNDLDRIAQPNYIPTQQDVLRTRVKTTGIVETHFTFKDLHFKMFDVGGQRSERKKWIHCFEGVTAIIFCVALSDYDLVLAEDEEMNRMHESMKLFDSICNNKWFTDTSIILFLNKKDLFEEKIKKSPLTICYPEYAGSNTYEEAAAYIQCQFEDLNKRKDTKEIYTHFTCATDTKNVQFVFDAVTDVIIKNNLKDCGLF
Procedure: (§1) These two reagents were prepared in one and the same solution and were preincubated for 30 minutes at room temperature before being distributed in the wells. The antibodies DSV36S-d2, DSV38S-d2 and SC13533-d2 were prepared 4× for final concentrations in the wells between 0.01 and 10 nM depending on the antibodies.
(§2) Moreover, the antibody titration curves obtained make it possible to calculate the affinity (Kd) of these different antibodies for the G-protein αi1. This was carried out using the GraphPad Prism software by applying a “one site specific binding” model to the HTRF data.

[2] = biological target: T1, human recombinant G-protein alphai1 …; assay: HTRF (TR-FRET) titration of antibody-d2 on 2.5 nM Twin-Strep-tagged Gαi1 with anti-Twin-Strep-tag-Lumi4 Tb; condition: Buffer only
Procedure: as §1, §2

[3] = biological target: T1, human recombinant G-protein alphai1 …; assay: HTRF competition on Gαi1 + GTPgS: unlabeled antibody varied against DSV36S-d2 (10 nM), detection with anti-Twin-Strep-tag-Lumi4 Tb
Procedure: (§3) These two reagents were prepared in one and the same solution and were preincubated for 30 minutes at room temperature before being distributed in the wells. The cold antibodies DSV36S, DSV38S, DSV26S, DSV3S, and DSV39S were prepared 4× for final concentrations in the wells between 0.001 and 1 μM. The antibody DSV36S-d2 was prepared 4× for a final concentration of 10 nM.
(§4) 1) 10 μl of the preincubated mixture of G-protein αi1 +GTPgS was put in each well, 2) 5 μl of the unlabeled antibodies DSV36S, DSV38S, DSV26S, DSV3S, and DSV39S was added to each well, 3) The plates were incubated for 30 minutes at room temperature, 4) 5 μl of the anti Twin-Strep-tag-Lumi4 Tb antibody and of the antibody DSV36S-d2 were added to each well.

[4] = biological target: T1, human recombinant G-protein alphai1 …; assay: HTRF competition on Gαi1 + GTPgS: unlabeled antibody varied against 36S-d2 (DSV36S-d2, 10 nM), detection with anti-Twin-Strep-tag-Lumi4 Tb
Procedure: as §3, §4

[5] = biological target: T1, human recombinant G-protein alphai1 …; assay: HTRF (TR-FRET) titration of antibody-d2 on 2.5 nM Twin-Strep-tagged Gαi1 with anti-Twin-Strep-tag-Lumi4 Tb; condition: GTP 10 µM as printed (the protocol names GTPgS)
Procedure: as §1, §2

B1: antibody DSV36S (antibody, V domains shown)
VH: EVQLQQSGAELVRPGALVKLSCKASGFNIKDYYMHWVKQRPEQGLEWIGWIDPENGNTIYDPKFQGKASITADTSSNTAYLQLSSLTSEDTAVYYCTRGGGYYSDWYFDVWGAGTTVTVSS
VL: QIVLTQSPAIMSASPGEKVTMTCSASSSVSYMHWYQQKSGTSPKRWIYDTSKLASGVPARFSGSGSGTSYSLTISSMEAEDAATYYCQQWSSNPPITFGAGTKLELK
notes: Used unlabeled or labeled with d2 (acceptor) or Lumi4Tb (donor); also called DSV36S-d2; DSV36S-Lumi4Tb
[1]
  Kd: 0.48 nM
[2]
  Kd: 0.82 nM
[3]
  IC50 (read off the curve): ~0.5 nM
[4]
  IC50 (read off the curve): ~0.5 nM
[5]
  Kd: 0.31 nM
